According to patent US20240277770A1, “SYSTEMS AND METHODS TO IDENTIFY MHC-ASSOCIATED ANTIGENS FOR THERAPEUTIC INTERVENTION” (GENENTECH, INC., priority 2021, published 2024):

Biological target: recombinant conditional HLA-A*02:01 complex (human)
Test: TR-FRET peptide exchange / HLA complex stability assay
Details: remark: other sources report otherwise

Binder: HMTEVVRHC (here or on the partner: biotinylated (BirA)) […]
- RZ-score: 3.9
